Test results: publication PMC12591160, “Polyadenylation Complex CFII Recognizes Downstream Cis‐element for Pre‐mRNA Polyadenylation Through Interaction with an RNA‐Binding Protein in Arabidopsis”

Legend:
[1] = biological target: T1, MBP-FPARRM-His (three RRM domains of FPA) (Arabidopsis thaliana, UniProt Q8LPQ9 1-307); test: ITC; 25 C, 150 mM NaCl, pH 8.0; EMSA: 10 mM HEPES-KOH pH 7.3, 20 mM KCl, 1 mM MgCl2, 1 mM DTT, 5% glycerol, 0.1 ug/uL tRNA, room temperature 30 min (protein eluted with 200 mM imidazole); ITC: 10 mM HEPES-KOH pH 8.0, 150 mM NaCl, 200 mM imidazole, 25 C; conditions: protein: recombinant; tags: MBP (pMAL-c2x), 6xHis
T1 sequence: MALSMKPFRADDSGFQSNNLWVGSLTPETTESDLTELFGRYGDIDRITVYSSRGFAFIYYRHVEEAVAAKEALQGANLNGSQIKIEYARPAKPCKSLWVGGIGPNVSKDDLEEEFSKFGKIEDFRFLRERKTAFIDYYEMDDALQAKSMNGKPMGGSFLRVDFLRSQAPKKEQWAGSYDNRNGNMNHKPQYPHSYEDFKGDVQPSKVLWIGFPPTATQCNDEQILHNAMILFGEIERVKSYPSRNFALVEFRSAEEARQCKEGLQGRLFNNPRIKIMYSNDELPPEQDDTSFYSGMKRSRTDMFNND

[2] = biological target: T2, MBP-FCARRM-His (RRM domains of FCA) (UniProt O04425 1-343); test: competition; unlabeled GU-rich competes labeled GU-rich probe; EMSA: 10 mM HEPES-KOH pH 7.3, 20 mM KCl, 1 mM MgCl2, 1 mM DTT, 5% glycerol, 0.1 ug/uL tRNA, room temperature 30 min (protein eluted with 200 mM imidazole); ITC: 10 mM HEPES-KOH pH 8.0, 150 mM NaCl, 200 mM imidazole, 25 C; conditions: protein: recombinant; tags: MBP (pMAL-c2x), 6xHis
T2 sequence: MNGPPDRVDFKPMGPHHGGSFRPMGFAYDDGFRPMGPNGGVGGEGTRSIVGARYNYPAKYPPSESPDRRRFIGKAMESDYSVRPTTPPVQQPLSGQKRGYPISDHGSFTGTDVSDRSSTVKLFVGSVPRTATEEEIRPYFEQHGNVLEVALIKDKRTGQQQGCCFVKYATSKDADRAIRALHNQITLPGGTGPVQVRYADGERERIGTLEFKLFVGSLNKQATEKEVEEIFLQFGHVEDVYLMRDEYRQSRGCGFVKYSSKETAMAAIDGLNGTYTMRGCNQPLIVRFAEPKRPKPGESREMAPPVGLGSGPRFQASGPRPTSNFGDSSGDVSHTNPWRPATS

[3] = biological target: T1, MBP-FPARRM-His (three RRM domains of …); test: EMSA; 2 nM probe, 2000 nM protein; EMSA: 10 mM HEPES-KOH pH 7.3, 20 mM KCl, 1 mM MgCl2, 1 mM DTT, 5% glycerol, 0.1 ug/uL tRNA, room temperature 30 min (protein eluted with 200 mM imidazole); ITC: 10 mM HEPES-KOH pH 8.0, 150 mM NaCl, 200 mM imidazole, 25 C; conditions: protein: recombinant; tags: MBP (pMAL-c2x), 6xHis; label: Biotin at both ends
[4] = biological target: T1, MBP-FPARRM-His (three RRM domains of …); test: EMSA; 2 nM probe, 600 nM protein; EMSA: 10 mM HEPES-KOH pH 7.3, 20 mM KCl, 1 mM MgCl2, 1 mM DTT, 5% glycerol, 0.1 ug/uL tRNA, room temperature 30 min (protein eluted with 200 mM imidazole); ITC: 10 mM HEPES-KOH pH 8.0, 150 mM NaCl, 200 mM imidazole, 25 C; conditions: protein: recombinant; tags: MBP (pMAL-c2x), 6xHis; label: Biotin at both ends
[5] = biological target: T2, MBP-FCARRM-His (RRM domains of FCA); test: as above; conditions: protein: recombinant; tags: MBP (pMAL-c2x), 6xHis; label: Biotin at both ends

Work on GAAGAGAAGAAGAGAAGAAGAGAA (ssRNA) [GA-rich RNA (unlabeled; ITC and competitor)] yielded a Kd [1] of roughly 20 µM.

GUUGUUUUGUUUGUUGUUUUGUUU (ssRNA) [GU-rich RNA (unlabeled; ITC and competitor)]: no binding [1]; binds [2].

UUCUCUUCUUCUCUUCUUCUCUUC (ssRNA) [UC-rich probe (antisense of GA-rich; EMSA, biotin)]: no binding [3].

GUUGUUUUGUUUGUUGUUUUGUUU (ssRNA) [GU-rich probe (EMSA, biotin)]: no binding [4]; binds [5].
